The Human Domainome abundance scans (Beltran et al. 2025)
± gives the uncertainty stated by the source.

B1: Ankyrin-3, residues 4094 to 4171; numbered along this chain, Q12955 (parent)
chain: MAIVADHLGLSWTELARELNFSVDEINQIRVENPNSLISQSFMLLKKWVTRDGKNATTDALTSVLTKINRIDIVTLLE

Variants of: B1
Test: abundance fitness (aPCA) (normalised: wild type 0, dead -1); higher = more abundant; growth selection in yeast, the domain comes from the species named
Conditions: Homo sapiens

Abundance fitness: each site, then its substitutions
E78: L -0.326 ± 0.088, W -0.649 ± 0.36, G 0.077 ± 0.13, S -0.089 ± 0.065, V -0.206 ± 0.075, Y -0.159 ± 0.14, T -0.063 ± 0.032, Q -0.397 ± 0.2, K -0.025 ± 0.085, H -0.026 ± 0.085, N -0.014 ± 0.09, C -0.275 ± 0.17, I -0.219 ± 0.041, D -0.001 ± 0.072, F -0.13 ± 0.1, M -0.211 ± 0.11
I73: V -0.276 ± 0.089, N -0.597 ± 0.39, Y -0.938 ± 0.39, G -0.977 ± 0.15, M -0.503 ± 0.14, S -0.849 ± 0.25, C -0.695 ± 0.16, A -0.631 ± 0.16, P -0.858 ± 0.17, H -0.715 ± 0.24, E -0.989 ± 0.31, W -0.793 ± 0.15, L -0.148 ± 0.05
T57: P -0.896 ± 0.15, I -0.779 ± 0.3, R -0.548 ± 0.066, S -0.117 ± 0.058, N 0.079 ± 0.12, L -0.798 ± 0.098, H -0.176 ± 0.1, K -0.739 ± 0.25, W -0.931 ± 0.18, M -0.394 ± 0.11, Y -0.14 ± 0.12, Q -0.298 ± 0.11, V -0.124 ± 0.055
A60: P -0.993 ± 0.2, N 0.219 ± 0.18, C -0.09 ± 0.13, I -0.28 ± 0.17, S -0.134 ± 0.071, G -0.233 ± 0.048, L -0.074 ± 0.054, K -0.083 ± 0.19, R -0.081 ± 0.051, W -0.458 ± 0.073, T -0.283 ± 0.14, E 0.061 ± 0.075, F -0.086 ± 0.11, Q -0.021 ± 0.069, D -0.627 ± 0.31, Y -0.417 ± 0.26, V -0.019 ± 0.039
T75: E 0.079 ± 0.1, S -0.004 ± 0.056, W -0.189 ± 0.072, V -0.112 ± 0.088, L 0.006 ± 0.056, D -0.155 ± 0.13, R -0.002 ± 0.048, I -0.182 ± 0.11, C -0.081 ± 0.071, H -0.219 ± 0.15, N 0.06 ± 0.1, M -0.026 ± 0.1, Q 0.026 ± 0.083, F -0.236 ± 0.22
L61: R -0.412 ± 0.067, T -1.05 ± 0.25, A -0.732 ± 0.11, P -0.921 ± 0.15, S -0.665 ± 0.11, G -0.954 ± 0.12, F -0.823 ± 0.23, I -0.355 ± 0.1, M -0.223 ± 0.12
V74: Y -0.55 ± 0.35, L -0.399 ± 0.074, N -0.777 ± 0.33, M -0.749 ± 0.41, G -0.651 ± 0.11, R -0.827 ± 0.12, S -0.656 ± 0.12, K -0.255 ± 0.18, T -0.142 ± 0.099, F -1.08 ± 0.37, E -0.888 ± 0.16, P -0.86 ± 0.26, D -0.944 ± 0.38
T66: N -0.112 ± 0.12, F -0.052 ± 0.081, I -0.088 ± 0.07, L -0.102 ± 0.05, P -0.535 ± 0.064, W -0.173 ± 0.053, G -0.126 ± 0.046, S -0.173 ± 0.051, M -0.054 ± 0.076, H -0.013 ± 0.092, C -0.21 ± 0.078, K -0.1 ± 0.12, R -0.07 ± 0.051, V 0.018 ± 0.045, A -0.14 ± 0.057, E -0.182 ± 0.16, Q 0.118 ± 0.068
D72: Q -0.702 ± 0.3, C -0.958 ± 0.38, L -0.718 ± 0.11, S -0.855 ± 0.16, A -0.739 ± 0.14, W -0.894 ± 0.32, M -0.738 ± 0.33, R -0.784 ± 0.11, V -0.644 ± 0.11, G -0.878 ± 0.14, P -0.396 ± 0.12, E -0.567 ± 0.17
I71: C -0.167 ± 0.15, V 0.015 ± 0.055, D 0.307 ± 0.22, G 0.085 ± 0.049, S -0.048 ± 0.076, T -0.016 ± 0.13, H -0.198 ± 0.12, A -0.075 ± 0.071, Q 0.136 ± 0.14, R -0.036 ± 0.045, M 0.039 ± 0.062, W -0.029 ± 0.077, F 0.066 ± 0.12, K 0.057 ± 0.13, L 0.081 ± 0.053, N -0.155 ± 0.22, Y 0.082 ± 0.19, E -0.066 ± 0.095, P -0.046 ± 0.063
D59: V -0.117 ± 0.049, C -0.036 ± 0.17, Y -0.253 ± 0.15, E -0.103 ± 0.069, Q 0.052 ± 0.11, G -0.011 ± 0.056, A -0.032 ± 0.074, R -0.072 ± 0.048, F -0.565 ± 0.36, P -0.058 ± 0.094, N -0.228 ± 0.15, W -0.201 ± 0.062, H -0.058 ± 0.15, S -0.118 ± 0.052, L -0.133 ± 0.048, K 0.052 ± 0.078, M 0.022 ± 0.085
T62: Q -0.201 ± 0.15, A 0.039 ± 0.069, E -0.297 ± 0.098, M 0.06 ± 0.15, F -0.175 ± 0.099, Y -0.12 ± 0.13, H -0.297 ± 0.33, K 0.097 ± 0.12, I -0.386 ± 0.17, V -0.057 ± 0.084, G -0.201 ± 0.058, W -0.434 ± 0.091, N -0.44 ± 0.48, R 0.068 ± 0.058, P -0.102 ± 0.089, C -0.292 ± 0.13, L -0.045 ± 0.04
V64: F 0.111 ± 0.052, D -0.858 ± 0.25, E 0.001 ± 0.15, W -0.644 ± 0.26, C 0.05 ± 0.12, H 0.132 ± 0.12, N -0.236 ± 0.35, T -0.087 ± 0.15, G -0.05 ± 0.08, P 0.037 ± 0.085, Y -0.166 ± 0.15, S -0.06 ± 0.089, K -0.333 ± 0.47, L 0.111 ± 0.07, Q 0.064 ± 0.17, M 0.064 ± 0.28, A -0.081 ± 0.078, R -0.298 ± 0.12
T58: P -0.195 ± 0.054, V 0.05 ± 0.059, W -0.123 ± 0.074, H 0.001 ± 0.091, F -0.112 ± 0.15, R -0.067 ± 0.051, L -0.002 ± 0.05, Q 0.034 ± 0.11, K 0.016 ± 0.13, I 0.09 ± 0.22, M 0.173 ± 0.14, N -0.168 ± 0.17, G -0.104 ± 0.04, A -0.051 ± 0.06, S 0.106 ± 0.058, E -0.113 ± 0.079, D 0.086 ± 0.079
L76: D -0.351 ± 0.32, A 0.08 ± 0.077, R 0.045 ± 0.039, N -0.292 ± 0.31, E -0.185 ± 0.098, H -0.064 ± 0.12, C -0.045 ± 0.096, Q 0.028 ± 0.085, S -0.175 ± 0.06, F -0.231 ± 0.21, Y -0.546 ± 0.33, I 0.434 ± 0.46, P -0.438 ± 0.079, W -0.489 ± 0.12, M 0.067 ± 0.23, T -0.197 ± 0.083, V 0.026 ± 0.058, G -0.457 ± 0.066
K67: A -0.135 ± 0.078, Q -0.056 ± 0.12, W -0.667 ± 0.37, R -0.091 ± 0.1, G -0.525 ± 0.1, C -0.436 ± 0.25, T -0.228 ± 0.18, L -0.641 ± 0.2, H -0.247 ± 0.16, P -0.646 ± 0.2, V -0.276 ± 0.051, S -0.285 ± 0.072, N -0.48 ± 0.25
L65: N -0.426 ± 0.25, M -0.651 ± 0.12, I -0.847 ± 0.32, C -0.505 ± 0.091, A -1.14 ± 0.19, E -0.824 ± 0.15, P -0.701 ± 0.099, S -0.884 ± 0.13, F -0.752 ± 0.29, D 0.076 ± 0.19, W -0.901 ± 0.16, R -0.902 ± 0.07, V -0.779 ± 0.11, K -0.528 ± 0.21, G -0.825 ± 0.11, Q -1.05 ± 0.27, Y -0.737 ± 0.23, H -0.973 ± 0.2
I68: M -0.244 ± 0.097, W -0.878 ± 0.28, S -0.935 ± 0.21, E -0.964 ± 0.34, A -0.868 ± 0.13, Q -0.806 ± 0.24, C -0.402 ± 0.17, T -0.987 ± 0.31, G -0.916 ± 0.15, K -0.606 ± 0.25, P -0.37 ± 0.12, L -0.219 ± 0.057, V -0.284 ± 0.065, R -0.965 ± 0.12, F -0.963 ± 0.34
R70: M -0.774 ± 0.33, G -1 ± 0.14, A -0.918 ± 0.19, Q -0.908 ± 0.23, L -0.82 ± 0.13, P -0.74 ± 0.29, W -0.795 ± 0.11, D -0.753 ± 0.25, V -0.876 ± 0.2, K -0.393 ± 0.24, C -0.817 ± 0.2
S63: I -0.287 ± 0.27, C -0.11 ± 0.087, M -0.046 ± 0.064, F -0.153 ± 0.15, K 0.002 ± 0.097, W -0.405 ± 0.086, G -0.031 ± 0.053, Y -0.003 ± 0.13, T 0.023 ± 0.066, A -0.014 ± 0.034, P -0.137 ± 0.084, D 0.054 ± 0.12, H -0.051 ± 0.1, Q -0.012 ± 0.079, N -0.106 ± 0.24, R -0.004 ± 0.059, E -0.075 ± 0.11, V -0.061 ± 0.053
N69: E -0.032 ± 0.12, G 0.073 ± 0.047, R -0.224 ± 0.067, M -0.61 ± 0.23, Y -0.699 ± 0.12, K -0.104 ± 0.14, D -0.178 ± 0.12, C -0.549 ± 0.23, Q -0.061 ± 0.12, A -0.339 ± 0.074, P -0.811 ± 0.16, L -0.679 ± 0.1, W -1.01 ± 0.44, S -0.29 ± 0.057, H -0.308 ± 0.18, V -0.928 ± 0.14
L77: R -0.93 ± 0.13, S -0.526 ± 0.088, H -0.742 ± 0.23, V -0.139 ± 0.048, T -0.434 ± 0.097, G -0.68 ± 0.11, I -0.293 ± 0.22, P -0.768 ± 0.14, K -0.602 ± 0.22, C -0.164 ± 0.12, W -0.518 ± 0.077, Q -0.805 ± 0.23, M -0.022 ± 0.12
